For test [1], the target named is T1, human CTLA4-hFc (human).
T1 construct: Extracellular domain of human CTLA4 fused with a human Fc tag; also called hCTLA4-hFc
The test can be described thus: ELISA, purified murine antibody on coated human CTLA4-hFc. Here is the method: ELISA binding analysis was conducted using human CTLA4-hFc. 96-well plates (Costar, Cat No: 9018) were coated with 100 μl of 2 μg/ml CTLA4-hFc (CrownBio) in coating buffer (PBS, Hyclone, Cat No: SH30256.01B) overnight at 4° C. The wells were aspirated and non-specific binding sites were blocked by adding 200 μl of blocking buffer with 1% (w/v) of bovine serum albumin (BSA, Roche, Cat No: 738328) and incubating for 1 hour at 37° C. After the plates are washed three times with wash buffer (PBS with 0.05% (v/v) TWEEN-20™ (Sigma, Cat No: P1379)), 100 μl/well of a suitable dilutions of hybridoma supernatant in blocking buffer were added and incubated at room temperature for 1 hour. The plates were washed and incubated with 100 μl/well of Goat anti-Mouse IgG (H+L) (Thermo, Cat No: 31432) in blocking buffer for 60 min. After the plates were washed, 100 μl/well of substrate solution TMB (eBioscience, Cat No: 00-4201-56) was added and the plates were incubated for 2 min at room temperature. 100 μl/well of stop solution (2N H₂SO₄) was added to stop the reaction. The colorimetric signals were developed and read at 450 nm using a Auto Plate SpectraMax Plus (Supplier: Molecular Devices; Model: MNR0643; Software: SoftMax Pro v5.4). Through this method, hybridoma cell lines that produce antibodies highly specifically binding to the human CTLA4 protein were repeatedly selected. […]

In test [2] the target is T2, human CTLA4 on hCTLA4-293T cells (human, UniProt P16410 36-223).
T2 construct: whole, on cells
T2 sequence (looked up): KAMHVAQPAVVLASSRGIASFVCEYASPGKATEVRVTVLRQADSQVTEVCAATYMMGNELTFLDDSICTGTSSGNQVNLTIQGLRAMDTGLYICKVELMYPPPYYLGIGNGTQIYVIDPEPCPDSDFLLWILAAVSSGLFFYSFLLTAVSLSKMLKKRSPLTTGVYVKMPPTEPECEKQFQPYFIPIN
The test can be described thus: FACS blockage of biotinylated human CD80 binding to hCTLA4-293T cells. Here is the method:
(§1) Various concentrations of the testing hybridoma antibodies were added to the cell suspension and incubated at 4° C. for 60 minutes in 96 well plates. Biotin-labeled CD80 protein was added into the wells and incubated at 4° C. for 60 minutes. […] Flow cytometric analyses were performed using a FACS Array.
(§2) The purified hybridoma antibodies were characterized further based on ELISA and FACS analyses. The methods applied were similar to those described above in Example 2 except that in these cases, purified antibodies were used to measure EC50 and IC50.

Test [3] concerns the target T3, human CTLA4-mFc (human).
T3 construct: Extracellular domain of human CTLA4 fused with mouse Fc; also called hCTLA4-mFc
Briefly: ELISA blockage of biotinylated CD80-mFc binding to coated human CTLA4-mFc. Here is the method: (§3) ELISA based ligand blockage analysis was conducted via blocking biotinylated human CD80-mFc from binding to human CTLA4-mFc. CTLA4-mFc antigen (CrownBio) was suspended in PBS (Hyclone, Cat No: SH30256.01B) buffer (2 μg/ml, 100 μl/well) and coated on the 96 well plate (Costar, Cat No: 9018) 4° C. overnight. Plates were washed 3 times using washing buffer: PBS+0.05% Tween 20 (Sigma, Cat No: P1379). 200 μl of blocking buffer (PBS+1% BSA (Roche, Cat No: 738328)) was added to each well, incubated at 37° C. for 1 hour, and washed 3 times. Various concentrations (suitable dilutions of hybridoma supernatant in PBS) of the anti-CTLA4 antibodies were added to the wells (100 μl/well) and incubated at 37° C. for 1 hour. Ligand was added (0.1 μg/ml CD80-mFc-biotin, 100 μl/well), incubated at 37° C. for 2 hours, and washed 3 times. Secondary antibody (Avidin HRP, eBioscience Cat No: E07418-1632, 1:500, 100 μl/well) was added, incubated at 37° C. for 0.5 hour, and washed 3 times. TMB (Sigma, Cat No: T0440, 100 μl/well) was added, and incubated for 3 min at room temperature. To stop the reaction, 2N H₂SO₄ (100 μl/well), was added. The colorimetric signals were developed and read at 450 nm using an Auto Plate SpectraMax Plus (Supplier: Molecular Devices; Model: MNR0643; Software: SoftMax Pro v5.4).
The purified hybridoma antibodies were characterized further based on ELISA and FACS analyses. […]
On the technique in general: ELISA stands for enzyme-linked immunosorbent assay.

For test [4], the target named is T4, human CTLA4 (construct not stated) (human, UniProt P16410 36-161, limits assumed).
T4 sequence (looked up): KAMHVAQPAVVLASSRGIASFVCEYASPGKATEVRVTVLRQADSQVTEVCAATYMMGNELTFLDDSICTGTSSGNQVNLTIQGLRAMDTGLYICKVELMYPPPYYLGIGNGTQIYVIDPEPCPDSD
The test can be described thus: SPR (Biacore 3000), antibody captured by anti-mouse Fc mAb, CTLA4 as analyte. Here is the method: (§4) To further characterize the binding characteristics of the antibodies, the hybridoma antibodies were profiled using Biacore (Biacore 3000, GE) to elucidate binding kinetics and calculate equilibrium binding constants. This assay was performed by capture method, using the mouse antibody capture kit (BR-1008-38, GE). After diluting anti-mouse Fc mab to 25 μg/ml in pH 5.0 immobilization buffer, immobilization was conducted with the parameters shown in Table 9 at a flow rate of 5 μl/min. The kinetic runs were done by 1) injecting ligand for typical 0.5-1 min at flow rate of 10 μl/min.; 2) injecting analytes of choice for typical 3 min followed by dissociation in running buffer (1×PBS-P20) for typical 5-10 min at flow rate of 30 μl/min.; and 3) injecting regeneration solution 10 mM Glycine pH 1.7 for typical 1-2 min at flow rate of 10 μl/min.
Background: In SPR one partner is held on a chip, and binding of the other changes the refractive index at the surface.

Test [5] has as its target T2, human CTLA4 on hCTLA4-293T cells. The test can be described thus: FACS on hCTLA4-293T cells, purified murine antibody. Here is the method: (§5) The cells were incubated with the indicated antibody (20 μg/ml with the dilution of 1/5) at 4° C. for 1 hour. Cells were washed three times with FACS buffer. A secondary antibody (PE Goat anti-mouse: 1:200; PE mouse anti-human: 1:10) was added to the cells at 100 μl/well, and incubated at 4° C. for 40 min. Cells were washed three times with FACS buffer and analyzed by FACS Array.
as §2

The target in another test is mouse CTLA4 (mouse, UniProt P09793 36-161, limits assumed). Briefly: protein based ELISA and other assays, not named.
Test [6] deals with T4, human CTLA4 (construct not stated). The test can be described thus: SPR (Biacore 3000), capture method as in Example 5, CTLA4 as analyte. Here is the method:
as §4
The binding kinetics between CTLA4 and humanized CTLA4 antibodies were measured by Biacore3000 as described in Example 5. The dissociation constant, KD, was calculated from the determined rate constants by the relation KD=kd/ka.

Test [7] deals with T1, human CTLA4-hFc. The test can be described thus: ELISA, humanized antibody on coated human CTLA4.
Test [8] deals with T2, human CTLA4 on hCTLA4-293T cells. The test can be described thus: FACS on hCTLA4-293T cells, humanized antibody. Here is the method: as §5
(§6) After generation and purification of humanized 6F3-hIgG1 and 10B10-hIgG1 antibodies, the binding and specificity of the antibodies were determined using ELISA-based binding and CTLA4/CD80 blockage analyses, as well as FACS-based binding and CTLA4/CD80 blockage analyses. The methods used were similar to those described above in EXAMPLE 4.

For test [9] the target is unchanged. Briefly: FACS blockage of biotinylated human CD80 binding to hCTLA4-293T cells. Here is the method: as §1, §6
This is another data set of the same source.

In test [10] the target is T3, human CTLA4-mFc. The test can be described thus: ELISA blockage of biotinylated CD80-mFc binding to coated human CTLA4-mFc. Here is the method:
as §3, with “Secondary antibody (Avidin HRP, eBioscience Cat No: E07418-1632, 1:500, 100 μl/well) was added, incubated at 37° C. for 0.5 hour, and washed 3 times. TMB (Sigma, Cat No: T0440, 100 μl/well) was added, and incubated for 3 min at room temperature. To stop the reaction, 2N H₂SO₄ (100 μl/well), was added.” left out
After generation and purification of humanized 6F3-hIgG1 and 10B10-hIgG1 antibodies, the binding and specificity of the antibodies were determined using ELISA-based binding and CTLA4/CD80 blockage analyses, as well as FACS-based binding and CTLA4/CD80 blockage analyses. […]
This is another data set of the same source.

Where two headings read alike, the source gives them in different places.

The values below come from patent US20190225690A1 (CROWN BIOSCIENCE TAICANG, published 2019).

For orientation: EC50 means the concentration needed to bring the measured effect to its halfway point. By IC50 is commonly meant the concentration needed to halve the response being measured. What is called Kd is the free concentration of one partner at which half of the binding sites on the other are occupied at equilibrium, for simple one-to-one binding. A higher Kd goes with weaker binding. For orientation: koff means the rate constant with which the complex falls apart. A word on the kon: it is a measure of how fast the partners come together. A lower kon goes with slow association.

B1: 10B10 murine (antibody, V domains shown)
VH: DVQLQESGPGLVTPSQSLSLTCSVTGYSITSGYSWNWIRQFPGNKLEWMGYIRFDGNNNYNPFLKNRISITRDTSENQFFLKLNSVTTEDTATYYCARNYGTWGAMDFWGQGTSVTVSS
VL: DIVLTQSPSSLSASLGGKVTITCKTSQDINKYMAWYQHKPGKGPRLLIYYTSILQPGIPSRFSGSGSGTDYSFSINNLEPEDIATYYCQQYDNLNTFGGGTMLEIK
notes: Mouse monoclonal antibody purified from hybridoma supernatant on Protein G; also called murine antibody 10B10; anti-CTLA4 hybridoma antibody 10B10
Consider B1, for which, in the test with human CTLA4-hFc [1], the midpoint of the response, the EC50, lay at 0.0127 µg/mL. The molecule further yielded an IC50 in [2] of 0.511 µg/mL. The IC50 with human CTLA4-mFc [3] was determined as 0.594 µg/mL. In test [4], this molecule displayed a Kd of 0.219 nM, a koff of 0.000152 s⁻¹ and a kon of 693000 M⁻¹ s⁻¹. Besides, the half-maximal effective concentration (EC50) in test [5] worked out at 0.305 µg/mL. Besides, in the test with mouse CTLA4, the binding result was “no binding”.

B2: 6F3 humanized (antibody, human IgG1, kappa, V domains shown)
VH: QVQLVQSGAEVKKPGSSVKVSCKASGYTFTDYEMHWVRQAPGQGLEWIGVIDPETGGITYNQKFKGRATLTADKSTSTAYMELSSLRSEDTAVYYCTRRGARATVYNYVMDYWGQGTLVTVSS
VL: DIQMTQSPSSLSASVGDRVTITCRASENIHNYLAWYQQKPGKAPKLLVYNAKTLGDGVPSRFSGSGSGTDYTLTISSLQPEDFATYYCQHFWSTPWTFGGGTKVEIKR
notes: Humanized IgG1, expressed in Freestyle 293 cells; also called h6F3-IgG1; humanized 6F3-hIgG1
In turn, B2 gave a Kd in [6] of 0.441 nM. The koff in [6] is 0.00013 s⁻¹. The same molecule yielded an on-rate constant (kon) in test [6] of 295000 M⁻¹ s⁻¹. Moreover, the EC50 is 0.00201 µg/mL in the test with human CTLA4-hFc [7] and 2.33 µg/mL in test [8]. The IC50 in test [9] amounted to 0.435 µg/mL; with human CTLA4-mFc [10], 0.295 µg/mL.

B3: 10B10 humanized (antibody, human IgG1, kappa, V domains shown)
VH: QVQLQESGPGLVKPSQTLSLTCAVSGYSITSGYSWNWIRQPPGKGLEWMGYIRFDGNNNYNPFLKNRITISRDTSKNQFSLKLSSVTAADTAVYYCARNYGTWGAMDFWGQGTLVTVSS
VL: DIQLTQSPSSLSASVGDRVTITCKTSQDINKYMAWYQQKPGKAPKLLIYYTSILQPGVPSRFSGSGSGTDYTFTISSLQPEDIATYYCQQYDNLNTFGGGTKVEIKR
notes: Humanized IgG1, expressed in Freestyle 293 cells; also called h10B10-IgG1; humanized 10B10-hIgG1
Regarding B3, in test [6], the Kd is 0.273 nM, the koff came out at 0.000113 s⁻¹ and the kon was found to be 414000 M⁻¹ s⁻¹. In addition, it took 0.00293 µg/mL to reach a half-maximal effect in the test with human CTLA4-hFc [7] (EC50). Also, the midpoint of the response in test [8], the EC50, lay at 5.28 µg/mL. In test [9], the IC50 is 0.0253 µg/mL. The half-maximal inhibitory concentration (IC50) in the test with human CTLA4-mFc [10] was determined as 0.285 µg/mL.

B4: 6F3 murine (antibody, V domains shown)
VH: QVKLQESGAELVRPGASVTLSCKASGYTFTDYEMHWMKQTPVHGLEWIGVIDPETGGITYNQKFKGKATLTADKSSSTAYMEFLSLTSEDSAVYYCTRRGARATVYNYVMDYWGQGTSVTVSS
VL: DIVMTQTTASLSASVGETVTITCRASENIHNYLAWYQQKQGRSPQLLVYNAKTLGDGVPSRFSGSGSGTQYSLKINSLQPEDFGSYYCQHFWSTPWTFGGGTKLEIK
notes: Mouse monoclonal antibody purified from hybridoma supernatant on Protein G; also called murine antibody 6F3; anti-CTLA4 hybridoma antibody 6F3
As for B4, the EC50 in the test with human CTLA4-hFc [1] came to 0.025 µg/mL. The molecule also came in with an IC50 in [2] of 0.526 µg/mL. The molecule also had an IC50 in the test with human CTLA4-mFc [3] of 0.526 µg/mL. Moreover, in [4], the affinity, expressed as Kd, was 0.409 nM; the koff was found to be 0.000244 s⁻¹; the association rate constant (kon) was 598000 M⁻¹ s⁻¹. This molecule also came in with a concentration giving a half-maximal response (EC50) in [5] of 1.18 µg/mL. In the test with mouse CTLA4, the binding result is given as “no binding”.
